Experiment [1] addresses Human EphA2 (human) (UniProt P29317). The experiment in a line: IHC/IF on frozen human tumor tissue: STS.
Experiment [2] has the same target. Kind of experiment: IHC/IF on frozen human tumor tissue: OVA.
For experiment [3] the target is unchanged. Kind of experiment: IHC/IF on frozen human tumor tissue: ESO.
Experiment [4] shares this target. Kind of experiment: IHC/IF on frozen human tumor tissue: Her2+ BRC.
Experiment [5] shares this target. Kind of experiment: IHC/IF on frozen human tumor tissue: TNBC.
The target is the same in experiment [6]. The experiment in a line: IHC/IF on frozen human tumor tissue: CRC.
The target is the same in experiment [7]. Kind of experiment: IHC/IF on frozen human tumor tissue: UCEC-papillary.
The target is the same in experiment [8]. Kind of experiment: IHC/IF on frozen human tumor tissue: HNC.
For experiment [9] the target is unchanged. Kind of experiment: IHC/IF on frozen human tumor tissue: RCC-clear cell.
The target is the same in experiment [10]. The experiment in a line: IHC/IF on frozen human tumor tissue: NSCLC-SQ.
Experiment [11] has the same target. Kind of experiment: IHC/IF on frozen human tumor tissue: GAC.
Experiment [12] has the same target. Kind of experiment: IHC/IF on frozen human tumor tissue: URO.
Experiment [13] has the same target. The experiment in a line: IHC/IF on frozen human tumor tissue: RCC-papillary.
For experiment [14] the target is unchanged. Kind of experiment: IHC/IF on frozen human tumor tissue: PANC.
The target is the same in experiment [15]. Kind of experiment: IHC/IF on frozen human tumor tissue: NSCLC-Adeno.
The target is the same in experiment [16]. The experiment in a line: IHC/IF on frozen human tumor tissue: ANC.
Experiment [17] shares this target. Kind of experiment: IHC/IF on frozen human tumor tissue: MELA.
For experiment [18] the target is unchanged. The experiment in a line: IHC/IF on frozen human tumor tissue: UCEC-endometrioid.
Experiment [19] has the same target. The experiment in a line: IHC/IF on frozen human tumor tissue: PROC.
Experiment [20] has the same target. Kind of experiment: IHC/IF on frozen human tumor tissue: ER+ BRC.
For experiment [21] the target is unchanged. The experiment in a line: IHC/IF on frozen human tumor tissue: UCEC-clear cell.

With MAB3035 (Gln25-Asn534) (antibody), the IHC score in [1] was 1; in experiment [2] it was 2; in experiment [3] it was 2; in experiment [4], 1; in [5], 1; in experiment [6] it was 1. The IHC score was 2 in [7]; 2 in [8]; 1 in experiment [9]; 2 in experiment [10]; 1 in [11]; 1 in [12]. The IHC score in [13] came out at 1; in experiment [14] it was 2; in [15], 2; in [16], 2; in [17], 3; in experiment [18] it was 2. Also, the IHC score amounted to 1 in experiment [19], 1 in experiment [20] and 2 in experiment [21].

For the origin of these results see patent publication US20250276077A1, “EPHA2 ANTIBODIES” (Immunome, Inc., priority 2022, published 2025).
